The record followed here is patent US20180230213A1 (AVEO PHARMACEUTICALS, published 2018).

The target in experiment [1] is T1, human Notch3 on the cell surface (human, UniProt Q9UM47 40-2321). Put plainly: cell-based or functional assay.
For experiment [2], the target named is T1, human Notch3 on the cell surface. Put plainly: FACS on CHO N3 cells (human Notch3), 4 C, one site binding fit. Here is the method: (§1) Binding to cell surface human Notch3 by the antibody 4F11 was measured at 4° C., using Fluorescence Activated Cell Sorting (FACS). CHO N3 (Flp-In-CHO cells (Invitrogen) stably transfected with human Notch3), HCC2429 cells, and RL-952 cells expressing human Notch3 were washed once with PBS containing calcium chloride and magnesium chloride (Invitrogen) and harvested using cell dissociation buffer (Invitrogen). Cells were washed a second time with PBS and resuspended in FACS buffer (PBS with 0.5% BSA (Sigma-Aldrich)) for a final cell concentration of 250,000 cells per well into a 96-well v-bottom plate. Purified antibodies were diluted in FACS buffer over a concentration range of 100 nM to 0.1 nM. Cells were then incubated at 4° C. with […] of antibody for one hour, washed with FACS buffer twice, and resuspended in […] of goat-anti mouse PE-conjugated antibody (Jackson Immuno Research). Cells were incubated at 4° C. for 30 minutes in the dark, washed once with FACS buffer, and then analyzed using a Beckman Coulter Cytomics FC 500 instrument. The geometric mean of the florescent intensity was then calculated for each antibody concentration. These values were then entered into Prism software (GraphPad, La Jolla, Calif.) and used to generate a binding curve by plotting geometric mean versus antibody concentration. […]

The target is the same in experiment [3]. Put plainly: FACS on RL-952 cells (human Notch3), 4 C, one site binding fit. Here is the method: as §1
For experiment [4] the target is unchanged. Put plainly: FACS on HCC2429 cells (human Notch3), 4 C, one site binding fit. The procedure: as §1
For a further experiment, the target named is T2, rhNotch2-Fc (human, UniProt Q04721 26-530).
T2 construct: also called human Notch2 protein; R&D Cat. No. 3735-NT-050
T2 sequence (looked up): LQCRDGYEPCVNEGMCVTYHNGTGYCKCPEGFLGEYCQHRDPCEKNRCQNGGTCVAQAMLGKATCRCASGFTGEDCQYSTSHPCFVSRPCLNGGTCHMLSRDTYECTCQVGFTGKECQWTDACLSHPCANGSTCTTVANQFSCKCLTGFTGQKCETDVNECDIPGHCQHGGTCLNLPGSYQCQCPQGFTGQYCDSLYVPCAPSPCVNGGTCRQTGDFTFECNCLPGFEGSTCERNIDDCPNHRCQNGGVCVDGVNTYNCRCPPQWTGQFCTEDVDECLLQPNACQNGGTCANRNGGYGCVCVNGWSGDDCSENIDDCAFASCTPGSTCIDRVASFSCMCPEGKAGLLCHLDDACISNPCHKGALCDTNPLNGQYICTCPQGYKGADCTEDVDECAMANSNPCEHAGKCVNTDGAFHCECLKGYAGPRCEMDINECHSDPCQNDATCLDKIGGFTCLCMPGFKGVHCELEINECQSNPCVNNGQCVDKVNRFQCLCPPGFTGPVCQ
Put plainly: BLI (Octet QK): rhNotch2-Fc loaded on anti-human-Fc sensors, then antibody 4F11 in solution. The procedure: Antibody 4F11 was tested for binding to human Notch1, human Notch2, or human Notch3 proteins. Binding measurements were made by biolayer interferometry (BLI), using a FortéBio Octet® QK instrument (FortéBio, Menlo Park, Calif.). Anti-human-Fc sensors were soaked in PBS containing 1 mg/ml BSA for five minutes prior to binding of antibodies. Then the following proteins (400 nM, in PBS containing 1 mg/ml BSA) were allowed to bind to the sensors: rhNotch1-Fc (R&D Systems, Minneapolis, Minn.; Cat. No. 3647-TK-050), rhNotch2-Fc (R&D Cat. No. 3735-NT-050), rhNotch3-Fc (R&D Cat. No. 1559-NT-050), or rmNotch3-Fc (R&D Cat. No. 1308-NT-050). Notch protein bound sensors were immersed in antibody solution (50 μg/ml) to allow binding of antibody to the Notch protein. Binding was detected by shifts in the interference pattern.

B1: antibody 4F11 (murine monoclonal anti-human Notch3) (antibody, mouse IgG1, kappa, V domains shown)
VH: EVQLVESGGGLVKPGGSLKLSCAASGFAFSSYDMSWVRQTPEKRLEWVAYISRGGGSTYYPDTVKGRFTISRDNAKNTLYLQMSSLKSEDTAMYYCGRHATTAYWYFDVWGAGTTVTVSS
VL: DVVMTQTPLSLPVSLGDQASISCRSSQSLVHTNGNTYLHWYLQKPGQSPKLLIYKVSNRFSGVPDRFSGSGSGTDFTLKISRVEAEDLGVYFCSQSTHVPWTFGGGTKLEIKR
notes: Mouse IgG1 kappa purified from hybridoma; also called mu4F11; murine 4F11
Regarding B1, in experiment [1], the “EC50, inhibition of Notch3-dependent reporter activity stimulated by DLL1” value was 6 nM; the “EC50, inhibition of Notch3-dependent reporter activity stimulated by DLL4” value stood at 4.7 nM; the “EC50, inhibition of Notch3-dependent reporter activity stimulated by Jag1” value is 2.6 nM; the “EC50, inhibition of Notch3-dependent reporter activity stimulated by Jag2” value is 0.4 nM. In experiment [2], the Kd was 0.36 nM. Also, the Kd in experiment [3] is 0.963 nM. In experiment [4], binding was characterised by a dissociation constant (Kd) of 2.58 nM. Besides, in the experiment with rhNotch2-Fc, the binding result is “no binding”.
